The results in this text go back to doi:10.1101/2023.12.24.573241.

Broadly, the stoichiometry N is a count of units in the complex or per binding partner.

For assay [1], the target named is DmUNC-104^bris (full-length DmUNC-104 R562H, C-terminal sfGFP and 2xStrep-tag II) (Drosophila melanogaster) (UniProt A1ZAJ2). In words: mass photometry.
Assay [2] concerns the target Taxol-stabilized microtubules polymerized from pig brain tubulin, labeled with biotin and AZDye647 (pig) (UniProt P02550). In words: TIRF single-molecule motility assay.
UniProt P02550, sequence (P02550 whole entry): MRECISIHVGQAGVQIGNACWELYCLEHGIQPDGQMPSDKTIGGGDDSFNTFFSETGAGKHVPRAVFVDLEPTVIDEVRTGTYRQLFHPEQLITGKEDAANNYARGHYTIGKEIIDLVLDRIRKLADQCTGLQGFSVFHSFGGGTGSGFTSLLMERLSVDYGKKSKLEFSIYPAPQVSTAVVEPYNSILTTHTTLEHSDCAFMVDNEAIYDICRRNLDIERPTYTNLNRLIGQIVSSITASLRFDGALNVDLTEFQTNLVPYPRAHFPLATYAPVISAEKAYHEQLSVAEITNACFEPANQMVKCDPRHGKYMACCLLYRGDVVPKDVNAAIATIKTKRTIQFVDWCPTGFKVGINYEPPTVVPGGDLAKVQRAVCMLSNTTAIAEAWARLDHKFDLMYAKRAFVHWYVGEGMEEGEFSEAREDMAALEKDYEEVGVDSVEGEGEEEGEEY

In assay [1], “DmUNC-104^bris (full-length DmUNC-104 R562H, C-terminal sfGFP and 2xStrep-tag II) (from UniProt A1ZAJ2 1-1670) (natural protein)” registered a percent of particles as dimer of 71% and a stoichiometry N of 2. In assay [2], this substance yielded a landing rate (median) (molecules/µm/s) of 0.034 and a landing rate of motile motors (median) (molecules/µm/s) of 0.015.
